According to patent publication US20200317802A1 (Merck KGaA, published 2020):
Numbering of substitutions follows the chain as printed.

B1: Nanobody 2A12 (VHH)
VHH: EVQLVESGGGLVQAGGSLRLSCAASGRTFSSYAMGWFRQAPGKERDFVAGISRSAGRTYYVDSVKGRFTISRDSAKNTVYLQMNRLKPEDTAVYYCAADLDPNRIFSRDEAAYWGQGTLVTVSS
notes: tagged as tested (anti-Flag detection, IMAC); also called 02A12
B2: Nanobody 2F03 (VHH)
VHH: B1 VHH with F29V, Q39L, D46E, G56E, V64L, Q82H, D109E, A111Y
notes: tagged as tested (anti-Flag detection, IMAC); also called 02F03; 2F3

How the values were obtained:
[1] = biological target: T1, recombinant human ADAMTS5 (R&D Systems cat #2198-AD) (human, UniProt Q9UNA0 262-622, limits assumed); experiment: cell-based or functional assay
T1 sequence: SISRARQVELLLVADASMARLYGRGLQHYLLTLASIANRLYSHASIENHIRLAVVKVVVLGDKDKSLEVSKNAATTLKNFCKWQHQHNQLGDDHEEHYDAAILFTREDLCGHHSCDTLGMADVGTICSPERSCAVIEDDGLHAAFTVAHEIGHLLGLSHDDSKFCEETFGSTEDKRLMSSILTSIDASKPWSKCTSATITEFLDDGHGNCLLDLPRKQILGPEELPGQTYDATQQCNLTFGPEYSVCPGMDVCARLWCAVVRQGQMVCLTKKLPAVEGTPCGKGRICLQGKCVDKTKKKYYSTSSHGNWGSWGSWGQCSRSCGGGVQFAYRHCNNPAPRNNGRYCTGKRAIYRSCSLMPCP

[2] = biological target: T1, recombinant human ADAMTS5 (R&D Systems …); experiment: cell-based or functional assay; remark: listed apart in the source
[3] = biological target: T2, cynomolgus monkey recombinant ADAMTS5 (cynomolgus monkey, UniProt Q9UNA0 262-622 (human entry), limits assumed); experiment: cell-based or functional assay
T2 chain: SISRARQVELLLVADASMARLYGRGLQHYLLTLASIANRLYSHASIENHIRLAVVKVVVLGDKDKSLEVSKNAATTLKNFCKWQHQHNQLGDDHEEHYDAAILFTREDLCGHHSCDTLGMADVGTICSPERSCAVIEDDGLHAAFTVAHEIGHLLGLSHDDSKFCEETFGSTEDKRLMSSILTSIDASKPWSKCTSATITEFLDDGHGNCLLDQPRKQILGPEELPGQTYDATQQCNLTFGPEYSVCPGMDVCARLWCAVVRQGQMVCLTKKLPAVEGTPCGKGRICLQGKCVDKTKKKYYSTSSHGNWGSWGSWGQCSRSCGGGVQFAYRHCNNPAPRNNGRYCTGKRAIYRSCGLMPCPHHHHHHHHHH

[4] = biological target: T3, guinea pig recombinant ADAMTS5 (guinea pig); experiment: cell-based or functional assay
T3 chain: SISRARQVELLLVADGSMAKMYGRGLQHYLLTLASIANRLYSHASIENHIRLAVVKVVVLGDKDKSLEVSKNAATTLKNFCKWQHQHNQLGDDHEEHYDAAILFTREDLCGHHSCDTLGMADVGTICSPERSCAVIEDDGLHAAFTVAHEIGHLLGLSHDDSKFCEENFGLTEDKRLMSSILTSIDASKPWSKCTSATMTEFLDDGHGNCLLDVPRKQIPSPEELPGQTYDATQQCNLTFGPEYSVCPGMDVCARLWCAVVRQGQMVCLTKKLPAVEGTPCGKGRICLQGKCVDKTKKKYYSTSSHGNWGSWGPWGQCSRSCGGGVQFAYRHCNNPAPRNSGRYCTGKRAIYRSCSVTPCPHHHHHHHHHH

rat recombinant ADAMTS5 = biological target: T4, rat recombinant ADAMTS5 (rat, UniProt Q9R001 262-618 (mouse entry)); experiment: SPR kinetics, Biacore T100, ADAMTS5 immobilised
T4 construct: in house, HEK293, His tag in the entry
T4 chain: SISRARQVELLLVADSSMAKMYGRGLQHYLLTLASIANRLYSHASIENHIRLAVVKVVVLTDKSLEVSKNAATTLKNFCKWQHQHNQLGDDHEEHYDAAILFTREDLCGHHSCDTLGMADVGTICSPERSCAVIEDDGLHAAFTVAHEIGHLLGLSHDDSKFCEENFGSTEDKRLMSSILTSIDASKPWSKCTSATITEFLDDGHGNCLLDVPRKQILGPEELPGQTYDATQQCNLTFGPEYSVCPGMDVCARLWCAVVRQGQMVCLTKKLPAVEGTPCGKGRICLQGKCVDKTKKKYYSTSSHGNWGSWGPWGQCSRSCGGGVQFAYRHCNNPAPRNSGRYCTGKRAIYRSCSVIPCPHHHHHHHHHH
Procedure: For referencing, affinity for human ADAMTS5 was also determined. Thereto, rat and human ADAMTS5 were immobilized onto a CM5 chip via amine coupling, using EDC and NHS chemistry. Purified Nanobodies were injected for 2 minutes at different concentrations (between 1 and 1000 nM) and allowed to dissociate for 25 min at a flow rate of 45 μl/min. The kinetic constants were calculated from the sensorgrams using the BIAEvaluation software (1:1 interaction).

[5] = biological target: T1, recombinant human ADAMTS5 (R&D Systems …); experiment: binding ELISA, periplasmic extract on coated human ADAMTS5
Procedure: In a first step, periplasmic extracts were tested for binding to recombinant human ADAMTS5 by binding ELISA. In brief, recombinant human ADAMTS5 (R&D Systems, Minneapolis, US; cat #2198-AD) at a concentration of 1 μg/ml was coated on 384-well MaxiSorp plates (Nunc, Wiesbaden, Germany). Wells were blocked with a casein solution (1%). After addition of a 10-fold dilution of the periplasmic extracts, Nanobody binding was detected using a mouse anti-Flag-HRP conjugate (Sigma, St. Louis, US) and a subsequent enzymatic reaction in the presence of the substrate esTMB (3,3′,5,5′-tetramentylbenzidine) (SDT, Brussels, Belgium). Clones showing ELISA signals higher than the sum of the average signal of the irrelevant Nanobody controls and 3 times the standard deviation of the irrelevant Nanobody controls were considered to encode positive human ADAMTS5 binding Nanobodies.

[6] = biological target: T1, recombinant human ADAMTS5 (R&D Systems …); experiment: SPR off-rate, Biacore T100, ADAMTS5 immobilised, experiment 3
Procedure: Species cross-reactivity was initially evaluated via SPR-based off-rate analysis on a Biacore T100 instrument. Nanobodies were tested for binding to human, cynomolgus monkey (“cyno”), guinea pig, mouse, and bovine ADAMTS5. To this end, recombinant ADAMTS5 was immobilized onto a CM5 chip via amine coupling using EDC and NHS. Purified Nanobodies were injected for 2 minutes at a concentration of 100 nM and allowed to dissociate for 15 min at a flow rate of 45 ul/min. Off-rate for each individual Nanobody was determined by fitting a 1:1 interaction model (Langmuir model) onto the individual dissociation curves using the BIA Evaluation software. As a reference, off-rates on human ADAMTS5 were determined in each experiment.

| Binder | Human AlphaLISA % inhibition [1] [%] | Human AlphaLISA IC50 [1] [pM] | AlphaLISA potency IC50, Human [2] [pM] | AlphaLISA potency IC50, Cyno [3] [pM] | AlphaLISA potency IC50, Guinea pig [4] [pM] | Kd (rat recombinant ADAMTS5) [pM] | binding ELISA (OD 450 nm) [5] [OD 450 nm] | koff [6] [s⁻¹] |
| --- | --- | --- | --- | --- | --- | --- | --- | --- |
| B1 | 100 | 150 | 150 | 190 | 530 | 1000 | 1.75 | 0.00031 |
| B2 | 100 | 75 | 75 | 81 | 300 | 700 | 1.84 | 9.7e-05 |
